Laboratory results reported in patent US20160311908A1 (MERRIMACK PHARMACEUTICALS, published 2016).

Biological target: murine EGFR (murine, UniProt Q01279 25-647, limits assumed)
Test: not described (statement in the xenograft methods)

B1: P3X (antibody, V domains shown)
VH: QVQLVQSGAEVKKPGASVKVSCKASGYAFTSYGINWVRQAPGQGLEWMGWISAYNGNTYYAQKLRGRVTMTTDTSTSTAYMELRSLRSDDTAVYYCARDLGGYGSGSVPFDPWGQGTLVTVSS
VL: EIVMTQSPATLSVSPGERATLSCRASQSVSSNLAWYQQKPGQAPRLLIYGASTRATGIPARFSGSGSGTEFTLTISSLQSEDFAVYYCQDYRTWPRRVFGGGTKVEIK
notes: Fully human monoclonal antibody; Alexa Fluor 488-labelled in flow cytometry; also called P3X monoclonal antibody; third monoclonal antibody
**Q.** Does B1 bind?
**A.** Result: no binding
